Data published in the supplement of paper PMC10065799, “High-throughput profiling of sequence recognition by tyrosine kinases and SH2 domains using bacterial peptide display” (eLife, 2023).

target: Hck (UniProt P08631); test: phosphorylation enrichment, bacterial display (enrichment ratio); higher = better substrate or ligand; peptides without Tyr show the background
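Further: 11-residue human phosphosite peptides and single-mutation variants displayed on the E. coli surface, counted by deep sequencing, each peptide's frequency after selection divided by its frequency in the unselected input library; frequency after pTyr selection over input frequency; kinase dosed for 20-30% of maximal phosphorylation in three min.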

Chain of Hck (P08631 whole entry, looked up): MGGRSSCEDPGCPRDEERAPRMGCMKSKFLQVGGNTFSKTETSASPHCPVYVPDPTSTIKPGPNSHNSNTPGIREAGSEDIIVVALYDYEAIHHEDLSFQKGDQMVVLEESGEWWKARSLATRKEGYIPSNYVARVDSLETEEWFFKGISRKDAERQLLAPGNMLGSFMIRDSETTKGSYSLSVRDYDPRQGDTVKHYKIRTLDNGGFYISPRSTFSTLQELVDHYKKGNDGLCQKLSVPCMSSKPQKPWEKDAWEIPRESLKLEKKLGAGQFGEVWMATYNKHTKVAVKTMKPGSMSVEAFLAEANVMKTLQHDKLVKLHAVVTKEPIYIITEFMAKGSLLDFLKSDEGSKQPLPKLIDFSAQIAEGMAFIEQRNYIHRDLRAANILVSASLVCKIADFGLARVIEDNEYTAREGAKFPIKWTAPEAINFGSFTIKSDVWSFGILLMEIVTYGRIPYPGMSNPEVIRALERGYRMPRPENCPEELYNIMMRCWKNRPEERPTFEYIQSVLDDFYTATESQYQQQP

Row | Sequence | phosphorylation enrichment
1 | YSTSPYLLEAA [BRIP1_Y921] | 1.08
2 | ISSLDYISKTK [VAV3_Y294] | 0.447
3 | ATGMEYLASQK [FGFR2_Y616_R612T] | 0.474
4 | GLGGGCGGASG [KRT8_Y54_Y54C] | 0.505
5 | MGHVNYGAFIN [GLB1_Y485_R482H_YF] | 0.609
6 | QNTGGYYDLYG [PTPN11_Y62_D61G] | 8.85
7 | DSSIRYLQEIH [FGG_Y135_Y140H] | 0.356
8 | AAVDEYLEHRR [FAM221A_Y17_Y20H] | 0.452
9 | KQLGEYKFQNA [ALB_Y425_E420K] | 0.375
10 | VDESLYKTHPQ [HK1_Y417_G414E] | 0.656
11 | TFMKKYPKVFL [CNBD1_Y70_Q69K] | 0.366
12 | CEDGTYSPEIS [PTDSS1_Y424] | 0.595
13 | PELINYQQHNS [BTK_Y361_H362Q] | 1.25
14 | ELANYYKLHHI [AK7_Y391] | 0.743
15 | EVTRLYGSVCD [TC2N_Y154_K151T] | 2.02
16 | PQIVKYRPDCI [LDHB_Y128_S129R] | 0.238
17 | AIDVGYRLIDC [AKR1B1_Y40_H42L] | 0.417

Row | Sequence | phosphorylation enrichment
18 | YKRAVYCIIGR [NUP93_Y391] | 0.755
19 | GQECKYPPTQD [METAP2_Y137_E136K] | 0.52
20 | TFINKYQGKLF [HGD_Y249_V245F] | 0.368
21 | KEGSAYGSQSV [NFKB2_Y868_D865G] | 0.426
22 | SSSPTYLDLPF [GLI3_Y168_P169L] | 2.25
23 | LQLLGHRPVFS [CHST6_Y358_Y358H_YF] | 0.957
24 | CVAARYMDMKG [WFIKKN2_Y93_V96M] | 0.471
25 | LISVSYDDWDF [GRIN2A_Y281_YF] | 0.893
26 | NGSKAYAFVHF [PABPC5_Y147_G146A_YF] | 0.531
27 | MNKNAYHNVTA [ST3GAL6_Y306] | 0.46
28 | FTGNTYRVGDT [FN1_Y106_YF] | 0.293
29 | IGCHAYGDQYR [IDH1_Y135_R132C] | 0.5
30 | MPAVTYTLAMR [MEGF10_Y895_P897L] | 0.514
31 | FPCSVYMPDEW [INSR_Y1011_V1012M] | 0.596
32 | PEVRRHVLPLN [RPE65_Y368_Y368H] | 0.894
33 | DGKYSYLKVGH [GRM3_Y480_G475D] | 0.455

target: Jak2 (UniProt O60674); test: as above
Sequence (O60674 whole entry, looked up): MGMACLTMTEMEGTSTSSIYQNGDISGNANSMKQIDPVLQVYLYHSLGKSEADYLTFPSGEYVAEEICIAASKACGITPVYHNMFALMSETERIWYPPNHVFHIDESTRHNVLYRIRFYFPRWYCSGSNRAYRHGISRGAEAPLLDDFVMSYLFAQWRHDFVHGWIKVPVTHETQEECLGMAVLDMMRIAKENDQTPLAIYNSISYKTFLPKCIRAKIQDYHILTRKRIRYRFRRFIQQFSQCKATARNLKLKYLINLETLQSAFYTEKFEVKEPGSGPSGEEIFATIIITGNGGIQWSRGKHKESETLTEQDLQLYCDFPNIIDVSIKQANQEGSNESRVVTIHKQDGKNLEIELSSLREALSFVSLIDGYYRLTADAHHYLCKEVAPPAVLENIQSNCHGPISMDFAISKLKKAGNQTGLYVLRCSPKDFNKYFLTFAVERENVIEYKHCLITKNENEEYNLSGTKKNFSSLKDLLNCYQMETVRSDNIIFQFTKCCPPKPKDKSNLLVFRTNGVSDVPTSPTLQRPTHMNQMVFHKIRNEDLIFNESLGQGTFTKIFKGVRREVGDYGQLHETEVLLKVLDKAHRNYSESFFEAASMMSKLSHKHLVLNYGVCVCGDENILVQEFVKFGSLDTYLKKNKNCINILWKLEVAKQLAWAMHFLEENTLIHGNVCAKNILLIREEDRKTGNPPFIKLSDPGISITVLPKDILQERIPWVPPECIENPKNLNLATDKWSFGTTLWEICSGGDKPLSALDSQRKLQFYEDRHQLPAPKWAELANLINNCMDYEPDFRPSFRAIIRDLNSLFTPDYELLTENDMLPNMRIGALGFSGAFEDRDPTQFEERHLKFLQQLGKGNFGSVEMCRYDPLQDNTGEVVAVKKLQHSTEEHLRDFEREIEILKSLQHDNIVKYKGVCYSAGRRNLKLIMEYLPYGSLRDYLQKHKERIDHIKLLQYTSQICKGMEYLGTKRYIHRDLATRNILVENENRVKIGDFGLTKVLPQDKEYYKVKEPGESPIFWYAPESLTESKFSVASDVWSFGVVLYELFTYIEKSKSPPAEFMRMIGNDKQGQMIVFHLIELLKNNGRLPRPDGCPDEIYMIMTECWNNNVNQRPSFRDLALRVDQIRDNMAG

Row | Sequence | phosphorylation enrichment
34 | YSTSPYLLEAA [BRIP1_Y921] | 0.694
35 | ISSLDYISKTK [VAV3_Y294] | 0.495
36 | ATGMEYLASQK [FGFR2_Y616_R612T] | 0.68
37 | GLGGGCGGASG [KRT8_Y54_Y54C] | 0.508
38 | MGHVNYGAFIN [GLB1_Y485_R482H_YF] | 0.72
39 | QNTGGYYDLYG [PTPN11_Y62_D61G] | 6.15
40 | DSSIRYLQEIH [FGG_Y135_Y140H] | 0.561
41 | AAVDEYLEHRR [FAM221A_Y17_Y20H] | 0.875
42 | KQLGEYKFQNA [ALB_Y425_E420K] | 0.525
43 | VDESLYKTHPQ [HK1_Y417_G414E] | 0.811
44 | TFMKKYPKVFL [CNBD1_Y70_Q69K] | 0.642
45 | CEDGTYSPEIS [PTDSS1_Y424] | 1.33
46 | PELINYQQHNS [BTK_Y361_H362Q] | 1.52
47 | ELANYYKLHHI [AK7_Y391] | 6.75
48 | EVTRLYGSVCD [TC2N_Y154_K151T] | 1.27
49 | PQIVKYRPDCI [LDHB_Y128_S129R] | 0.391
50 | AIDVGYRLIDC [AKR1B1_Y40_H42L] | 0.792

Row | Sequence | phosphorylation enrichment
51 | YKRAVYCIIGR [NUP93_Y391] | 0.599
52 | GQECKYPPTQD [METAP2_Y137_E136K] | 1.03
53 | TFINKYQGKLF [HGD_Y249_V245F] | 0.457
54 | KEGSAYGSQSV [NFKB2_Y868_D865G] | 0.673
55 | SSSPTYLDLPF [GLI3_Y168_P169L] | 0.592
56 | LQLLGHRPVFS [CHST6_Y358_Y358H_YF] | 1.03
57 | CVAARYMDMKG [WFIKKN2_Y93_V96M] | 0.654
58 | LISVSYDDWDF [GRIN2A_Y281_YF] | 2.06
59 | NGSKAYAFVHF [PABPC5_Y147_G146A_YF] | 0.796
60 | MNKNAYHNVTA [ST3GAL6_Y306] | 0.443
61 | FTGNTYRVGDT [FN1_Y106_YF] | 0.499
62 | IGCHAYGDQYR [IDH1_Y135_R132C] | 0.979
63 | MPAVTYTLAMR [MEGF10_Y895_P897L] | 0.845
64 | FPCSVYMPDEW [INSR_Y1011_V1012M] | 1.1
65 | PEVRRHVLPLN [RPE65_Y368_Y368H] | 1.57
66 | DGKYSYLKVGH [GRM3_Y480_G475D] | 0.437

target: MERTK (UniProt Q12866); test: as above
Sequence (Q12866 whole entry, looked up): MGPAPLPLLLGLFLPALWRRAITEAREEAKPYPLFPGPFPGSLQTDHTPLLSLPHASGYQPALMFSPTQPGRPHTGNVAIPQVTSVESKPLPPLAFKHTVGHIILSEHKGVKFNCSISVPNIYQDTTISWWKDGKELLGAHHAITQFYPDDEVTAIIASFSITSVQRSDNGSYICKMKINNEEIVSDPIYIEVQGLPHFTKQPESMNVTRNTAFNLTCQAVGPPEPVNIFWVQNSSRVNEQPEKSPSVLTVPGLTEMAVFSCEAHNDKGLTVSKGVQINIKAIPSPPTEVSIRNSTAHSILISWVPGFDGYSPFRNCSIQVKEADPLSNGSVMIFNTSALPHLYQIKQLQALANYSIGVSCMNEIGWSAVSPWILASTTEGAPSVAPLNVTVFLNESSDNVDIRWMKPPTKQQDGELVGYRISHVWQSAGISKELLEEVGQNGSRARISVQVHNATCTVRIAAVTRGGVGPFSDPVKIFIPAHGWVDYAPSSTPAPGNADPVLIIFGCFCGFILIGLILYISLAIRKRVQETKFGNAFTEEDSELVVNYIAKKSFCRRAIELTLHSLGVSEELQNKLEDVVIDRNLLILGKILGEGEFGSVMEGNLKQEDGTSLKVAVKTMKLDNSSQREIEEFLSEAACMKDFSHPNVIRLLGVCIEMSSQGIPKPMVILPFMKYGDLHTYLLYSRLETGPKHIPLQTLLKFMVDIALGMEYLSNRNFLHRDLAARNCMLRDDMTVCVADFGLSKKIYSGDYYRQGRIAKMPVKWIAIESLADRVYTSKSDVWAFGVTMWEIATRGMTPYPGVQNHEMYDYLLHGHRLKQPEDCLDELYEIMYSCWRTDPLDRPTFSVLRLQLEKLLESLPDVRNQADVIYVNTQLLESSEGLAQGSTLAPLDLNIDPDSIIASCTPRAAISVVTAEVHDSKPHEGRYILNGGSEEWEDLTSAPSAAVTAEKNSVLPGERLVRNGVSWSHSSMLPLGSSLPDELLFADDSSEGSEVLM

Row | Sequence | phosphorylation enrichment
67 | YSTSPYLLEAA [BRIP1_Y921] | 1.38
68 | ISSLDYISKTK [VAV3_Y294] | 0.537
69 | ATGMEYLASQK [FGFR2_Y616_R612T] | 0.423
70 | GLGGGCGGASG [KRT8_Y54_Y54C] | 0.384
71 | MGHVNYGAFIN [GLB1_Y485_R482H_YF] | 0.391
72 | QNTGGYYDLYG [PTPN11_Y62_D61G] | 8.88
73 | DSSIRYLQEIH [FGG_Y135_Y140H] | 0.369
74 | AAVDEYLEHRR [FAM221A_Y17_Y20H] | 0.388
75 | KQLGEYKFQNA [ALB_Y425_E420K] | 0.399
76 | VDESLYKTHPQ [HK1_Y417_G414E] | 0.553
77 | TFMKKYPKVFL [CNBD1_Y70_Q69K] | 0.404
78 | CEDGTYSPEIS [PTDSS1_Y424] | 0.486
79 | PELINYQQHNS [BTK_Y361_H362Q] | 0.988
80 | ELANYYKLHHI [AK7_Y391] | 3.36
81 | EVTRLYGSVCD [TC2N_Y154_K151T] | 0.727
82 | PQIVKYRPDCI [LDHB_Y128_S129R] | 0.133
83 | AIDVGYRLIDC [AKR1B1_Y40_H42L] | 0.39

Row | Sequence | phosphorylation enrichment
84 | YKRAVYCIIGR [NUP93_Y391] | 0.849
85 | GQECKYPPTQD [METAP2_Y137_E136K] | 0.553
86 | TFINKYQGKLF [HGD_Y249_V245F] | 0.631
87 | KEGSAYGSQSV [NFKB2_Y868_D865G] | 0.436
88 | SSSPTYLDLPF [GLI3_Y168_P169L] | 1.12
89 | LQLLGHRPVFS [CHST6_Y358_Y358H_YF] | 0.602
90 | CVAARYMDMKG [WFIKKN2_Y93_V96M] | 0.446
91 | LISVSYDDWDF [GRIN2A_Y281_YF] | 1.03
92 | NGSKAYAFVHF [PABPC5_Y147_G146A_YF] | 0.71
93 | MNKNAYHNVTA [ST3GAL6_Y306] | 0.404
94 | FTGNTYRVGDT [FN1_Y106_YF] | 0.394
95 | IGCHAYGDQYR [IDH1_Y135_R132C] | 0.384
96 | MPAVTYTLAMR [MEGF10_Y895_P897L] | 0.437
97 | FPCSVYMPDEW [INSR_Y1011_V1012M] | 0.559
98 | PEVRRHVLPLN [RPE65_Y368_Y368H] | 0.669
99 | DGKYSYLKVGH [GRM3_Y480_G475D] | 0.44

tested on: c-Abl (mouse); test: as above

Row | Sequence | phosphorylation enrichment
100 | YSTSPYLLEAA [BRIP1_Y921] | 0.959
101 | ISSLDYISKTK [VAV3_Y294] | 0.478
102 | ATGMEYLASQK [FGFR2_Y616_R612T] | 0.58
103 | GLGGGCGGASG [KRT8_Y54_Y54C] | 0.444
104 | MGHVNYGAFIN [GLB1_Y485_R482H_YF] | 0.565
105 | QNTGGYYDLYG [PTPN11_Y62_D61G] | 1.01
106 | DSSIRYLQEIH [FGG_Y135_Y140H] | 0.524
107 | AAVDEYLEHRR [FAM221A_Y17_Y20H] | 0.778
108 | KQLGEYKFQNA [ALB_Y425_E420K] | 0.4
109 | VDESLYKTHPQ [HK1_Y417_G414E] | 0.9
110 | TFMKKYPKVFL [CNBD1_Y70_Q69K] | 0.548
111 | CEDGTYSPEIS [PTDSS1_Y424] | 0.838
112 | PELINYQQHNS [BTK_Y361_H362Q] | 1.22
113 | ELANYYKLHHI [AK7_Y391] | 0.565
114 | EVTRLYGSVCD [TC2N_Y154_K151T] | 0.895
115 | PQIVKYRPDCI [LDHB_Y128_S129R] | 0.069
116 | AIDVGYRLIDC [AKR1B1_Y40_H42L] | 0.861

Row | Sequence | phosphorylation enrichment
117 | YKRAVYCIIGR [NUP93_Y391] | 0.563
118 | GQECKYPPTQD [METAP2_Y137_E136K] | 0.727
119 | TFINKYQGKLF [HGD_Y249_V245F] | 0.52
120 | KEGSAYGSQSV [NFKB2_Y868_D865G] | 0.632
121 | SSSPTYLDLPF [GLI3_Y168_P169L] | 0.681
122 | LQLLGHRPVFS [CHST6_Y358_Y358H_YF] | 0.919
123 | CVAARYMDMKG [WFIKKN2_Y93_V96M] | 0.542
124 | LISVSYDDWDF [GRIN2A_Y281_YF] | 1.64
125 | NGSKAYAFVHF [PABPC5_Y147_G146A_YF] | 0.618
126 | MNKNAYHNVTA [ST3GAL6_Y306] | 0.465
127 | FTGNTYRVGDT [FN1_Y106_YF] | 0.479
128 | IGCHAYGDQYR [IDH1_Y135_R132C] | 0.796
129 | MPAVTYTLAMR [MEGF10_Y895_P897L] | 0.724
130 | FPCSVYMPDEW [INSR_Y1011_V1012M] | 0.687
131 | PEVRRHVLPLN [RPE65_Y368_Y368H] | 1.73
132 | DGKYSYLKVGH [GRM3_Y480_G475D] | 0.284
